We go through 2 molecules from patent US10428159B2, “Blocking monoclonal antibodies to AGR2 and its receptor C4.4A” (Board of Regents, The University of Texas System, priority 2014, dated 2019).

Test [1] deals with AsPC-1 cells. Briefly: Apoptosis assay (Gem, rAGR2, antibodies). The class given is cell-based. The method, then:
FIGS. 11A-D. Monoclonal antibodies developed bind respectively to AGR2 and C4.4A proteins and blocked their functions. From the endogenous lysate (SU86.86/Panc-1), AGR2 (18 kD) and C4.4A (50 kD) were identified by a panel of mAbs. […] Extra bands identified with the endogenous protein were re-confirmed with the recombinant protein. For apoptosis studies, AsPC-1 cells were treated without or with Gem (0.5 μM) and rAGR2 (100 nM) and with purified (A) AGR2 and (B) C4.4A Abs (1 μM). Commercially available Abs served as control. […] Horizontal line represents median apoptotic value. Data shown are mean±SE for 3 experiments (*p<0.05). (C,D) Binding assays were conducted with purified (C) AGR2 and (D) C4.4A Abs as selected from the apoptosis assay as having high blocking efficiency. ELISA assays were conducted by coating antigenic peptide (0.5 μg) and probed with respective purified Abs. Data shown are mean±SE for 3 experiments (*p <0.05). Based on high specificity and binding, clone 28B for AGR2 and 1A for C4.4A were selected. Purified Abs were also run on 4-20% gradient gel to check for the presence of heavy (50 kD) and light chains (25 kD).
Cell growth, migration, invasion and apoptosis assays. Wild-type and siRNA transfected PDAC cells were grown with rAGR2 (0-500 nM) in the presence and absence of antibodies (polyclonal commercial or newly developed mAbs) (1 μM). The medium was refreshed daily. […]

Test [2] concerns PDAC cell. Briefly: Blocking of basal and AGR2-stimulated PDAC cell migration by antibodies. Format: cell-based. Particulars: antibodies 1 μM, compared to non-specific antibody. The procedure:
(§1) Cell growth, migration, invasion and apoptosis assays. Wild-type and siRNA transfected PDAC cells were grown with rAGR2 (0-500 nM) in the presence and absence of antibodies (polyclonal commercial or newly developed mAbs) (1 μM). The medium was refreshed daily. Cell numbers were estimated after 48 h by MTS assay as described previously (Ramachandran et al., 2007). In order to avoid the differences in basal values for each cell line, the data are presented as the percent of viable cells compared to the appropriate controls. Migration and invasion assays were conducted at 24 h as described previously (Ramachandran et al., 2007). Apoptosis assays were conducted 72 h after adding Gemcitabine (Gem) to Gem-sensitive BxPC-3 cells (1 μM) and Gem-resistant AsPC-1 cells (5 μM) (Arumugam et al., 2009) as described previously (Ramachandran et al., 2008). Because siRNA transfection itself induced basal apoptosis, cells transfected with siRNAs were treated with a lower concentration of Gem (BxPC3: 0.5 μM; AsPC-1: 1 μM).
Blocking monoclonal antibody development. Mouse monoclonal antibodies (mAbs) against AGR2 and C4.4A were developed in the Monoclonal Antibody Core of UT MDACC using unconjugated antigenic peptides. Several hybridoma colonies (2400 for each antibody) were screened for target recognition by ELISA using KLH-conjugated peptides. […]

Test [3] deals with Capan-2 cells. The test is described as follows: Model 2 Capan-2 stromal model, orthotopic tumors. Format: in vivo, athymic nude mice. The procedure: (§2) In vivo studies. In vivo experiments were conducted with athymic nude mice (B6.Cg-Foxn1^nu/J—female—age 9 weeks) (NCI, Bethesda, Md.) according to the UT MDACC regulatory standards and IUCAC committee approval. Orthotopic tumors were developed with luciferase-labeled cells (0.25×10^6). IgG (Cat #OB010701; Southern Biotech, Birmingham, Ala.) served as a control Ab.

The test system of test [4] is Capan-2 cells. The test is described as follows: Model 3 Capan-2 regression studies, orthotopic tumors. Format: in vivo, athymic nude mice. Particulars: 15 mg/kg single mAb or 7.5 mg each in combination, twice a week i.p. The procedure:
Immunohistochemical (IHC) staining. […] Results were blindly evaluated by a pathologist and expression levels were categorized as positive or negative (cytoplasmic staining of >10% or <10% of the tumor cells, respectively) and staining intensity as strong, moderate, or no staining. Apoptotic cells were detected in paraffin sections by fluorescence-labeled TUNEL staining (Promega, Cat #G3250).
as §2
Tumor growth and metastasis were measured weekly with the IVIS® live animal bioluminescence imaging system after injecting luciferin substrate (Xenogen, Alameda, Calif.). The number of mice surviving was recorded each week and shown as the percent of the original group size.

In test [5] the test system is AsPC-1 cells. The test is described as follows: Cell proliferation (MTS assay) with rAGR2. The note with it: AsPC-1, rAGR2 0-500 nM, concentration-dependent. Format: cell-based. The procedure:
as §1
(Formazan colour is commonly taken as a measure of viable cells.)

The subject of test [6] is AsPC-1 cells. Briefly: Migration assay with rAGR2. Format: cell-based. The note with it: AsPC-1, rAGR2 0-500 nM. The method, then:
as §1

For test [7], the system named is AsPC-1 cells. Briefly: Invasion assay with rAGR2. The class given is cell-based. Particulars: AsPC-1, rAGR2 0-500 nM. The procedure:
as §1

Test [8] has as its system BxPC-3 cells. The test is described as follows: Cell proliferation with rAGR2. Format: cell-based. Particulars: BxPC-3, rAGR2 dose-dependent. The procedure: (§3) FIGS. 7A-D. Extracellular rAGR2-mediated functions. (A) Pancreatic cancer cells (BxPC-3 and MiaPaCa-2) were used for these studies. Extracellular addition of rAGR2 caused a significant dose-dependent increase in proliferation (BxPC-3-3-fold increase; MiaPaCa-2-4-fold increase; p<0.05). Pancreatic cancer cells were plated (2×10^4 cells) with and without rAGR2 (0-100 nM) on a Boyden's chamber for migration studies (B) and on an invasion chamber for invasion studies (C). After 22 h, cells were fixed with methanol and stained by hematoxylin, and cells in 10 random fields at 100× magnification were photographed and counted. Extracellular addition of rAGR2 caused a significant dose-dependent increase in migration (BxPC-3-7-fold increase; MiaPaCa-2-3-fold increase) and invasion (BxPC-3-10-fold increase; MiaPaCa-2-3-fold increase). (D) For analysis of apoptosis, BxPC-3 cells were treated with and without Gem (1 μM) and AGR2 (100 nM). […] Data shown are mean±SE for 3 experiments (*p<0.05 vs. control).
(§4) Cell growth, migration, invasion and apoptosis assays. Wild-type and siRNA transfected PDAC cells were grown with rAGR2 (0-500 nM) in the presence and absence of antibodies (polyclonal commercial or newly developed mAbs) (1 μM). The medium was refreshed daily. Cell numbers were estimated after 48 h by MTS assay as described previously (Ramachandran et al., 2007). […]

In test [9] the test system is MiaPaCa-2 cells. The test is described as follows: Cell proliferation with rAGR2. The class given is cell-based. The note with it: MiaPaCa-2, rAGR2 dose-dependent. The method, then: as §3, §4
Test [10] deals with BxPC-3 cells. Briefly: Migration (Boyden's chamber) with rAGR2. The class given is cell-based. The note with it: BxPC-3, rAGR2 0-100 nM, 22 h. The procedure:
as §3, §4

For test [11], the system named is MiaPaCa-2 cells. Briefly: Migration (Boyden's chamber) with rAGR2. The class given is cell-based. The note with it: MiaPaCa-2, rAGR2 0-100 nM, 22 h. The method, then: as §3, §4
For test [12], the system named is BxPC-3 cells. The test is described as follows: Invasion chamber assay with rAGR2. Format: cell-based. Particulars: BxPC-3, rAGR2 0-100 nM, 22 h. The procedure: as §3, §4
The subject of test [13] is MiaPaCa-2 cells. The test is described as follows: Invasion chamber assay with rAGR2. Format: cell-based. The note with it: MiaPaCa-2, rAGR2 0-100 nM, 22 h. The method, then:
as §3, §4

Test [14] relates to BxPC-3 cells. Briefly: Apoptosis assay (Gem, rAGR2). The class given is cell-based. Particulars: BxPC-3, Gem 1 μM, AGR2 100 nM. The procedure: as §3, §4

B1: 162-1A-1: mouse monoclonal blocking antibody against C4.4A, IgG2b/kappa, VH SEQ ID NO: 10, VL SEQ ID NO: 11 (antibody, V domains shown)
VH: MNFGLSLIFLVLILKGVQCEVMLVESGGGLVKPGGSLKLSCAASGFTFSSYTMSWVRQTPEKRLEWVASISSGGGNTYYADSVKGRFTMSRDNAKNNLYLQMSSLRSEDTALYYCARSYYYGISYDTYWGQGTLVTVSA
VL: MKLPVRLLVLMFWIPASNSDVVMTQTPLSLPVSLGDQASISCRSSQNLVHSDGNTYLHWYLQKPGQSPKLLIYKVSNRFSGVPDRFSGSGSGTDFTLKISRVEAEDLGVYFCSQSTHVPYTFGGGTKLEIK
With B1, the “AGR2-mediated survival effects (Gem-induced apoptosis)” value in test [1] (AsPC-1, Gem, rAGR2 100 nM, Abs 1 μM) is recorded as “abolished”. Further, the “basal and AGR2-mediated stimulation in migration” value in [2] is reported as “abolished”. This molecule also returned a Median survival in [3] (15 mg/kg twice a week i.p.) of 10 weeks. Besides, in test [3] (at nine weeks (seven weeks of treatment), when all control Ab mice had died, 15 mg/kg twice a week i.p.), the mice surviving came out at 57%. In [3] (bioluminescence imaging, confirmed by surgical examination), the “mice with complete tumor regression” value is 3/7. Also, the “reduction of tumor volume” value in test [3] (compared to control Ab, bioluminescence) was 50%. For the same molecule, the “mice surviving after week 63” value in test [3] (treatment stopped after 15 weeks, no evidence of tumor) is reported as “one”. Moreover, in test [4], the Median survival times was 12 weeks.

B2: rAGR2: human recombinant AGR2 protein (ab64013, AbCam) (protein)
chain: RDTTVKPGAKKDTKDSRPKLPQTLSRGWGDQLIWTQTYEEALYKSKTSNKPLMIIHHLDECPHSQALKKVFAENKEIQKLAEQFVLLNLVYETTDKHLSPDGQYVPRIMFVDPSLTVRADITGRYSNRLYAYEPADTALLLDNMKKALKLLKTEL
Molecule B2 displayed an increased proliferation in [5] of 3 fold. Moreover, in [6], the increased migration came to 10 fold. Further, in test [7], the increased invasion is given as 3 fold. Also, the “reduction of the effect of Gem (apoptosis)” value in test [1] (AsPC-1, simultaneous rAGR2 with 5 μM Gem) is given as greater than 50%. Besides, the increase in proliferation in [8] came to 3 fold; in test [9], 4 fold. The increase in migration is recorded as 7 fold in test [10] and 3 fold in [11]. The increase in invasion was determined as 10 fold in test [12] and 3 fold in [13]. In test [14], the “reduction of Gem induced apoptosis” value stood at 50%.
